Reference: the supplement of paper PMC9732359
± gives the uncertainty stated by the source.

Experiment: protein stability index of a GFP-peptide fusion (yeast GPS) (PSI 1-4); higher = more stable; sorted into four equal gates, so the index is relative within each strain
Outline: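 Tiled 17-residue yeast protein peptides were fused downstream of GFP in a plasmid that also expresses Cherry, and the pooled library was carried in yeast. Mid-log cultures in leucine-free medium were sorted into four equal gates by GFP/Cherry fluorescence ratio, and plasmids from each gate were PCR-amplified and Illumina-sequenced, with reads assigned to strains by barcodes. The protein stability index for each peptide was each gate's read frequency times its gate number, summed.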

Sequence: ARVSPRNNVANKQPRNE [YAR002W/NUP60]
- protein stability index (doa10∆): 3.29 ± 0.14
- protein stability index (pdr5∆): 3.78 ± 0.26
- protein stability index (ubr1∆): 3.65 ± 0.25

Sequence: ASELANPYSSYVSQIRK [YAR002W/NUP60]
- protein stability index (doa10∆): 3.22 ± 0.17
- protein stability index (pdr5∆): 2.9 ± 0.13
- protein stability index (san1∆): 2.31 ± 0.17
- protein stability index (ubr1∆): 1.92 ± 0.073

Sequence: ASFYSVNTEKKTIEVTA [RPN3]
- protein stability index (pdr5∆): 1.29 ± 0.11
- protein stability index (ubr1∆): 1.65 ± 0.28

Sequence: ASGLLRAYLSHSNRCIV [CSN12]
- protein stability index (doa10∆): 1.85 ± 0.04
- protein stability index (pdr5∆): 1.56 ± 0.04
- protein stability index (san1∆): 1.7 ± 0.063
- protein stability index (ubr1∆): 1.25 ± 0.027

Sequence: ASLTAARTAANSIYCPT [RPN6]
- protein stability index (doa10∆): 2.53 ± 0.19
- protein stability index (pdr5∆): 2.66 ± 0.1
- protein stability index (san1∆): 2.84 ± 0.093
- protein stability index (ubr1∆): 2.49 ± 0.045

Sequence: ASNGRNKKGRGHVKPVR [RPS26A]
- protein stability index (doa10∆): 3.46 ± 0.075
- protein stability index (pdr5∆): 3.35 ± 0.086
- protein stability index (san1∆): 3.45 ± 0.082
- protein stability index (ubr1∆): 3.3 ± 0.056

Sequence: ASVYPEYALPKTYNKLH [RPS26A]
- protein stability index (doa10∆): 2.92 ± 0.076
- protein stability index (pdr5∆): 2.51 ± 0.053
- protein stability index (san1∆): 2.79 ± 0.059
- protein stability index (ubr1∆): 2.71 ± 0.031

Sequence: ATAAESDVAKQLAALGY [RPL16A]
- protein stability index (doa10∆): 2.98 ± 0.042
- protein stability index (pdr5∆): 2.91 ± 0.056
- protein stability index (san1∆): 3.18 ± 0.045
- protein stability index (ubr1∆): 3.2 ± 0.048

Sequence: ATDLAGPANNPNEFMQF [PRP8]
- protein stability index (doa10∆): 3.21 ± 0.063
- protein stability index (pdr5∆): 3.35 ± 0.059
- protein stability index (san1∆): 3.23 ± 0.033
- protein stability index (ubr1∆): 3.4 ± 0.05

Sequence: ATDPVAAKPDNLANFSN [SWP82]
- protein stability index (doa10∆): 3.27 ± 0.077
- protein stability index (pdr5∆): 3.18 ± 0.084
- protein stability index (san1∆): 3.21 ± 0.051
- protein stability index (ubr1∆): 3.26 ± 0.057

Sequence: ATEPQMVLFNIYDDWLD [PRP8]
- protein stability index (doa10∆): 2.28 ± 0.051
- protein stability index (pdr5∆): 2.15 ± 0.047
- protein stability index (san1∆): 1.6 ± 0.09
- protein stability index (ubr1∆): 2.18 ± 0.044

Sequence: ATFLKLAAPQLVQMYIG [RPT5]
- protein stability index (doa10∆): 1.31 ± 0.25
- protein stability index (san1∆): 1.2 ± 0.21
- protein stability index (ubr1∆): 1.44 ± 0.23

Sequence: ATGISGSVSEETELFEP [ECM29]
- protein stability index (doa10∆): 3.22 ± 0.083
- protein stability index (pdr5∆): 3.16 ± 0.054
- protein stability index (san1∆): 3 ± 0.08
- protein stability index (ubr1∆): 3.04 ± 0.067

Sequence: ATLPYIKQDIPIVIIFR [RPB2]
- protein stability index (doa10∆): 1.5 ± 0.063
- protein stability index (pdr5∆): 1.2 ± 0.049
- protein stability index (san1∆): 1.19 ± 0.12
- protein stability index (ubr1∆): 1.14 ± 0.041

Sequence: ATMSVFLQRIDFQIDGN [RRI2]
- protein stability index (doa10∆): 2.92 ± 0.081
- protein stability index (pdr5∆): 2.99 ± 0.066
- protein stability index (san1∆): 2.95 ± 0.059
- protein stability index (ubr1∆): 3.29 ± 0.058

Sequence: ATQVKTDNTVDKFDFYK [RPT3]
- protein stability index (doa10∆): 3.29 ± 0.12
- protein stability index (pdr5∆): 2.98 ± 0.11
- protein stability index (san1∆): 3.26 ± 0.095
- protein stability index (ubr1∆): 3.09 ± 0.099

Sequence: ATSQYLKQDLKKISSFK [YGL172W/NUP49]
- protein stability index (doa10∆): 2.9 ± 0.064
- protein stability index (pdr5∆): 2.56 ± 0.064
- protein stability index (san1∆): 3.04 ± 0.051
- protein stability index (ubr1∆): 3.06 ± 0.042

Sequence: ATVPSAPYRKQIISNAH [YAR002W/NUP60]
- protein stability index (doa10∆): 2.34 ± 0.062
- protein stability index (pdr5∆): 2.41 ± 0.069
- protein stability index (san1∆): 1.88 ± 0.093
- protein stability index (ubr1∆): 2.37 ± 0.06

Sequence: ATVVSTNHSAAASTPTT [PGD1]
- protein stability index (doa10∆): 2.91 ± 0.047
- protein stability index (pdr5∆): 3.12 ± 0.042
- protein stability index (san1∆): 2.98 ± 0.035
- protein stability index (ubr1∆): 3 ± 0.037

Sequence: AVDNCAICRNHIMEPCI [HRT1]
- protein stability index (doa10∆): 2.12 ± 0.071
- protein stability index (pdr5∆): 2.79 ± 0.09
- protein stability index (san1∆): 2.02 ± 0.086
- protein stability index (ubr1∆): 2.2 ± 0.07

Sequence: AVFYTPKELGGLGMISA [PRP8]
- protein stability index (doa10∆): 3.43 ± 0.13
- protein stability index (pdr5∆): 2.33 ± 0.13
- protein stability index (san1∆): 2.4 ± 0.1
- protein stability index (ubr1∆): 2.29 ± 0.24

Sequence: AVIESVVNQPTGKIVDV [FAS1]
- protein stability index (doa10∆): 2.49 ± 0.097
- protein stability index (pdr5∆): 2.57 ± 0.14
- protein stability index (san1∆): 2.52 ± 0.089
- protein stability index (ubr1∆): 2.39 ± 0.08

Sequence: AVKTAETGYMSRRLMKS [RPO31]
- protein stability index (doa10∆): 2.33 ± 0.13
- protein stability index (san1∆): 2.52 ± 0.25

Sequence: AVLSYYKVDAEGKVTKL [RPS31]
- protein stability index (doa10∆): 2.98 ± 0.11
- protein stability index (pdr5∆): 2.99 ± 0.13
- protein stability index (san1∆): 3.03 ± 0.083
- protein stability index (ubr1∆): 3.27 ± 0.065

Sequence: AVNSIMALKFVSIKFTN [ECM29]
- protein stability index (pdr5∆): 3.12 ± 0.11
- protein stability index (san1∆): 2.87 ± 0.13
- protein stability index (ubr1∆): 3.13 ± 0.22

Sequence: AVNWQDKQGWTPLFHAL [NAS6]
- protein stability index (doa10∆): 2.07 ± 0.16
- protein stability index (pdr5∆): 2.1 ± 0.18
- protein stability index (san1∆): 2.4 ± 0.092

Sequence: AVPAATPANTNNSTSNA [SWI1]
- protein stability index (doa10∆): 2.52 ± 0.06
- protein stability index (pdr5∆): 2.99 ± 0.053
- protein stability index (san1∆): 2.65 ± 0.053
- protein stability index (ubr1∆): 2.96 ± 0.04

Sequence: AVSEKAGHQTSAESWGT [RPL4A]
- protein stability index (doa10∆): 2.24 ± 0.086
- protein stability index (pdr5∆): 2.03 ± 0.1
- protein stability index (san1∆): 1.71 ± 0.11
- protein stability index (ubr1∆): 1.86 ± 0.088

Sequence: AWGALITTFVKRSTVPL [YML103C/NUP188]
- protein stability index (doa10∆): 2.46 ± 0.07
- protein stability index (pdr5∆): 2.88 ± 0.072
- protein stability index (san1∆): 2.49 ± 0.076
- protein stability index (ubr1∆): 2.33 ± 0.12

Sequence: AYELRTKSKEQLASQLV [RPL35A]
- protein stability index (doa10∆): 3.02 ± 0.11
- protein stability index (pdr5∆): 3.29 ± 0.091
- protein stability index (san1∆): 2.93 ± 0.067
- protein stability index (ubr1∆): 3.15 ± 0.13

Sequence: AYSSRFQTPFRRRREGK [RPL5]
- protein stability index (doa10∆): 2.9 ± 0.078
- protein stability index (pdr5∆): 2.75 ± 0.068
- protein stability index (san1∆): 2.58 ± 0.082
- protein stability index (ubr1∆): 3.04 ± 0.064

Sequence: CAACHSLDRVAWRTLVG [CYT1]
- protein stability index (doa10∆): 1.29 ± 0.052
- protein stability index (pdr5∆): 1.32 ± 0.047
- protein stability index (san1∆): 1.34 ± 0.1
- protein stability index (ubr1∆): 1.26 ± 0.042

Sequence: CAFLLTKIKDAEEDSLL [YJL039C/NUP192]
- protein stability index (doa10∆): 3.22 ± 0.11
- protein stability index (pdr5∆): 3.4 ± 0.071
- protein stability index (san1∆): 3.08 ± 0.11
- protein stability index (ubr1∆): 3.35 ± 0.1

Sequence: CAMSGLTADARSMIEHA [PUP2]
- protein stability index (doa10∆): 2.3 ± 0.13
- protein stability index (pdr5∆): 2.94 ± 0.18
- protein stability index (ubr1∆): 2.64 ± 0.12

Sequence: CEINYYEILLKILITYG [SRB8]
- protein stability index (doa10∆): 1.2 ± 0.047
- protein stability index (pdr5∆): 1.54 ± 0.065
- protein stability index (san1∆): 1.17 ± 0.1
- protein stability index (ubr1∆): 1.2 ± 0.076

Sequence: CFCEDHCDKCSVVLTLQ [RPB3]
- protein stability index (doa10∆): 3.12 ± 0.14
- protein stability index (pdr5∆): 3.15 ± 0.14
- protein stability index (san1∆): 2.42 ± 0.19
- protein stability index (ubr1∆): 2.51 ± 0.17

Sequence: CFPQYVNSKQGAINVAN [NNF1]
- protein stability index (doa10∆): 2.43 ± 0.29
- protein stability index (ubr1∆): 3.02 ± 0.16

Sequence: CIFNFLQQQTPVTIWLF [SME1]
- protein stability index (doa10∆): 1.18 ± 0.069
- protein stability index (pdr5∆): 1.47 ± 0.066
- protein stability index (san1∆): 1.25 ± 0.084
- protein stability index (ubr1∆): 1.15 ± 0.052

Sequence: CIKKIMENNEPAMAMED [SRB8]
- protein stability index (doa10∆): 3.12 ± 0.072
- protein stability index (pdr5∆): 3.15 ± 0.079
- protein stability index (san1∆): 3.13 ± 0.059
- protein stability index (ubr1∆): 3.08 ± 0.069

Sequence: CILYDADESKMAKLNEC [RET1]
- protein stability index (doa10∆): 2.28 ± 0.062
- protein stability index (pdr5∆): 1.99 ± 0.06
- protein stability index (san1∆): 2.32 ± 0.1
- protein stability index (ubr1∆): 1.76 ± 0.055

Sequence: CISLSGVPNYLVQLEPH [SSN2]
- protein stability index (doa10∆): 1.85 ± 0.062
- protein stability index (pdr5∆): 2.09 ± 0.08
- protein stability index (san1∆): 2.29 ± 0.083
- protein stability index (ubr1∆): 2.2 ± 0.065

Sequence: CLDQMTEQFCATLNYID [SRB7]
- protein stability index (doa10∆): 2.39 ± 0.043
- protein stability index (pdr5∆): 2.87 ± 0.047
- protein stability index (san1∆): 2.99 ± 0.049
- protein stability index (ubr1∆): 2.65 ± 0.039

Sequence: CLENARSQISEKDAKIN [SIR4]
- protein stability index (doa10∆): 3.09 ± 0.078
- protein stability index (pdr5∆): 3.23 ± 0.081
- protein stability index (san1∆): 3.13 ± 0.066
- protein stability index (ubr1∆): 2.98 ± 0.064

Sequence: CLSDYTKKISNFNSSLH [YJL039C/NUP192]
- protein stability index (doa10∆): 1.56 ± 0.061
- protein stability index (pdr5∆): 2.04 ± 0.057
- protein stability index (san1∆): 1.72 ± 0.083
- protein stability index (ubr1∆): 1.25 ± 0.036

Sequence: CPEEFAESMCQELELPG [SNF5]
- protein stability index (doa10∆): 3.25 ± 0.073
- protein stability index (pdr5∆): 3 ± 0.074
- protein stability index (san1∆): 2.71 ± 0.07
- protein stability index (ubr1∆): 3.03 ± 0.075

Sequence: CRKCYARLPPRATNCRK [RPL40A]
- protein stability index (doa10∆): 3.09 ± 0.23
- protein stability index (pdr5∆): 3.71 ± 0.28
- protein stability index (san1∆): 3.13 ± 0.14
- protein stability index (ubr1∆): 2.92 ± 0.13

Sequence: CRNDAVNWLAYTYLYVR [BRR2]
- protein stability index (doa10∆): 3.25 ± 0.063
- protein stability index (pdr5∆): 3.54 ± 0.046
- protein stability index (san1∆): 3.18 ± 0.046
- protein stability index (ubr1∆): 3.21 ± 0.043

Sequence: CRVCSSHTGLIRKYGLN [RPS29A]
- protein stability index (doa10∆): 1.5 ± 0.13
- protein stability index (pdr5∆): 1.53 ± 0.1
- protein stability index (san1∆): 1.48 ± 0.15
- protein stability index (ubr1∆): 1.59 ± 0.069
